Reference: patent publication US20220288067A1 (University of Pennsylvania, published 2022)

How the values were obtained:
[1] = target: T1, Human Recombinant GST-MED1 protein (aa1391-1490), Q15648
T1 chain: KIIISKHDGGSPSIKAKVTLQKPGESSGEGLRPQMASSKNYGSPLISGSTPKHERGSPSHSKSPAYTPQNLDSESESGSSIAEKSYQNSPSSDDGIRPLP

[2] = target: T2, mutant MED1-peptide SPAYAPQNLD
T2 chain: SPAYAPQNLD

[3] = target: T3, wild type MED1-peptide SPAYTPQNLD
T3 chain: SPAYTPQNLD

[4] = target: T4, MED1 (endogenous, phosphorylated upon DHT stimulation) (Homo sapiens, UniProt Q15648 1-1581, phosphothreonine at T1457 and T1032 (DHT-induced)); experiment: reciprocal co-immunoprecipitation from LNCaP and VCaP nuclear lysates with MED1 and CDK7 antibodies (FIGS. 5c, 5d)
T4 construct: Endogenous protein immunoprecipitated with an anti-MED1 antibody (Bethyl A300-793A) from nuclear extracts; also called p-MED1; TRAP220
T4 sequence (Q15648 whole entry): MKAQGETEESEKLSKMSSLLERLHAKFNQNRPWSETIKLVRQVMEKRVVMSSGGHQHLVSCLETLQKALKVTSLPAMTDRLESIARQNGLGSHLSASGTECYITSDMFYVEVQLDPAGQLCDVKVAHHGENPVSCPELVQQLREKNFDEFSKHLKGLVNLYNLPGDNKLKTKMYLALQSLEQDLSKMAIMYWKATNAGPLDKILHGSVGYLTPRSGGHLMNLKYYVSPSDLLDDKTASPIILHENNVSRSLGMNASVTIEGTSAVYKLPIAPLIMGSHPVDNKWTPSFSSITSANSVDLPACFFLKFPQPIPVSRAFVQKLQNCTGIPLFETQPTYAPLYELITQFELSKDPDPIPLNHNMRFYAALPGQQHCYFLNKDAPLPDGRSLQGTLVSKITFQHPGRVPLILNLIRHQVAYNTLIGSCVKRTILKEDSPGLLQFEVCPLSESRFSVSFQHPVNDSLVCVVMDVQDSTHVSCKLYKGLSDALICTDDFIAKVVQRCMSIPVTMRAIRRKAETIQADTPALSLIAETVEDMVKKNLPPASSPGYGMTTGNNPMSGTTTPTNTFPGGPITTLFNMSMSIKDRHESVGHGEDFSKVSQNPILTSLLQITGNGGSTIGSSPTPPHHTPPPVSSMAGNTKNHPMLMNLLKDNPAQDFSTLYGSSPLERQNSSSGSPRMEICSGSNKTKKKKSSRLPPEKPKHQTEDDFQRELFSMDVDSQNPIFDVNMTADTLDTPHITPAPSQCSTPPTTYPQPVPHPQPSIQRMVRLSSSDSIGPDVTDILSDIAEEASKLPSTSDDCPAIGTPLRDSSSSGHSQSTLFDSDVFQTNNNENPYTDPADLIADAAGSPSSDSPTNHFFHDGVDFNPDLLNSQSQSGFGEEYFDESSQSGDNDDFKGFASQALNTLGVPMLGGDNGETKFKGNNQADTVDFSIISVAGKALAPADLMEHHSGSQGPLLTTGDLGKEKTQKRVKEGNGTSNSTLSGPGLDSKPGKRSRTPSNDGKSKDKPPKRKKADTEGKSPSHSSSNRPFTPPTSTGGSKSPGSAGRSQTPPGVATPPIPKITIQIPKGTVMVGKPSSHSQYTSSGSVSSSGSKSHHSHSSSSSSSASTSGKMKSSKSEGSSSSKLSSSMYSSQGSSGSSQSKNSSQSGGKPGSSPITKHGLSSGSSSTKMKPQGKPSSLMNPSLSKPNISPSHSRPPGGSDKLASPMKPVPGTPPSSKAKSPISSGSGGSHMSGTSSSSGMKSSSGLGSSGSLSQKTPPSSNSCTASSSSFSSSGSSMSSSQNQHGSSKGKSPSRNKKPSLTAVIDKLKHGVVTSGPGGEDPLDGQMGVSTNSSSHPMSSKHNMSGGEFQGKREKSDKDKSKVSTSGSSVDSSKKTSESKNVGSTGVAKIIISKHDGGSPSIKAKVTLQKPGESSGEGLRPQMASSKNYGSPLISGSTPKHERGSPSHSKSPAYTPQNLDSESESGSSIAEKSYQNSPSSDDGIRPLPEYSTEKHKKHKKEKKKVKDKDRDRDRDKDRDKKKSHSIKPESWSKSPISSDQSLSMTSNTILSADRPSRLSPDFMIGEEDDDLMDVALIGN

B1: CAK complex-CDK7/CyclinH/MAT1 enzyme (recombinant, BPS Bioscience) (protein)
chain 1: ALDVKSRAKRYEKLDFLGEGQFATVYKARDKNTNQIVAIKKIKLGHRSEAKDGINRTALREIKLLQELSHPNIIGLLDAFGHKSNISLVFDFMETDLEVIIKDNSLVLTPSHIKAYMLMTLQGLEYLHQHWILHRDLKPNNLLLDENGVLKLADFGLAKSFGSPNRAYTHQVVTRWYRAPELLFGARMYGVGVDMWAVGCILAELLLRVPFLPGDSDLDQLTRIFETLGTPTEEQWPDMCSLPDYVTFKSFPGIPLHHIFSAAGDDLLDLIQGLFLFNPCARITATQALKMKYFSNRPGPTPGCQLPRPNCPVETLKEQSNPALAIKRKRTEALEQGGLPKKLIF
chain 2: YHNSSQKRHWTFSSEEQLARLRADANRKFRCKAVANGKVLPNDPVFLEPHEEMTLCKYYEKRLLEFCSVFKPAMPRSVVGTACMYFKRFYLNNSVMEYHPRIIMLTCAFLACKVDEFNVSSPQFVGNLRESPLGQEKALEQILEYELLLIQQLNFHLIVHNPYRPFEGFLIDLKTRYPILENPEILRKTADDFLNRIALTDAYLLYTPSQIALTAILSSASRAGITMESYLSESLMLKENRTCLSQLLDIMKSMRNLVKKYEPPRSEEVAVLKQKLERCHSAELALNVITKKRKGYEDDDYVSKKSKHEEEEWTDDDLVESL
chain 3: DDQGCPRCKTTKYRNPSLKLMVNVCGHTLCESCVDLLFVRGAGNCPECGTPLRKSNFRVQLFEDPTVDKEVEIRKKVLKIYNKREEDFPSLREYNDFLEEVEEIVFNLTNNVDLDNTKKKMEIYQKENKDVIQKNKLKLTREQEELEEALEVERQENEQRRLFIQKEEQLQQILKRKNKQAFLDELESSDLPVALLLAQHKDRSTQLEMQLEKPKPVKPVTFSTGIKMGQHISLAPIHKLEEALYEYQPLQIETYGPHVPELEMLGRLGYLNHVRAASPQDLAGGYTSSLACHRALQDAFSGLFWQPS
in vitro kinase assay, immunoblot of the reaction mixtures [1]: we observed Threonine phosphorylation, specifically at T1457, which was completely inhibited by THZ1 | luminescence based kinase assay (ADP-Glo) [2]: CDK7 exhibited no activity towards the T1457A mutant peptide | luminescence based kinase assay (ADP-Glo) [3]: CDK7-mediated phosphorylation of the T1457 wildtype peptide was inhibited by THZ1 treatment in a dose-dependent manner

B2: CDK7 (endogenous) (enzyme, human, UniProt P50613 2-346, looked up)
chain: ALDVKSRAKRYEKLDFLGEGQFATVYKARDKNTNQIVAIKKIKLGHRSEAKDGINRTALREIKLLQELSHPNIIGLLDAFGHKSNISLVFDFMETDLEVIIKDNSLVLTPSHIKAYMLMTLQGLEYLHQHWILHRDLKPNNLLLDENGVLKLADFGLAKSFGSPNRAYTHQVVTRWYRAPELLFGARMYGVGVDMWAVGCILAELLLRVPFLPGDSDLDQLTRIFETLGTPTEEQWPDMCSLPDYVTFKSFPGIPLHHIFSAAGDDLLDLIQGLFLFNPCARITATQALKMKYFSNRPGPTPGCQLPRPNCPVETLKEQSNPALAIKRKRTEALEQGGLPKKLIF
notes: Detected or immunoprecipitated with anti-CDK7 (Cell Signaling 2916s); also called cyclin-dependent-kinase 7
binding result [4]: binds
